Reference: the nanobody polyreactivity screen of Harvey et al. (2022)

Test: yeast display, Sf9 membrane polyspecificity reagent, FACS + sequencing; frameworks hold sequencing errors
In short: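 Synthetic nanobody libraries on Saccharomyces cerevisiae BJ5465 were galactose-induced for 36–48 hours, stained 1 hour at 4 °C with 10% biotinylated, detergent-solubilized Sf9 membrane reagent and enriched on streptavidin microbeads. FACS then separated cells into low and high (top ~1%) gates by anti-HA (expression) and streptavidin (reagent binding) fluorescence. Genes were colony-PCR amplified, MiSeq 2 × 250 sequenced and CDR-length filtered. A clone's polyreactivity label is that of its gate of origin.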

Sequence | polyreactivity (PSR sort gate)
QVQLVESGGGLVQAGGSLRLSCAASGRIFKFNAMGWYRQAPGKERELVAATWSGGRTSYADSVKGRFTISRDNAKNTVYLQMNSLKPEDTAVYYCNAADWIDVQYDYWGQGNQVTVSS | low polyreactivity
QVQLVESGGGLVQAGGSLRLSCAASGRIFKGNAMGWYRQAPGKEREFVAAISQRGGSTYYADSVKGRFTISRDNAKNTVYLQMNSLKPEDTAVYFCAAAAQRPEGYYWGQGTQVTVSS | high polyreactivity
QVQLVESGGGLVQAGGSLRLSCAASGRIFKGNAMGWYRQAPGKEREFVADISQRGGSTYYADSVKGRFTISRDNAKNTVYLQMNSLKPEDTAVYYCAAVRKSVGVKYDYWGQGTQVTVSS | high polyreactivity
QVQLVESGGGLVQAGGSLRLSCAASGRIFKGYAMGWYRLAPGKERELVAAITSGGNTNYADSVKGRFTISRDNAKNTVYLQMNSLKPEDTAVYYCAARPRFVYSYPYYYWGQGTQVTVSS | high polyreactivity
QVQLVESGGGLVQAGGSLRLSCAASGRIFKHYAMGWYRQAPGKERELVAAITNGGRTNYADSVKGRFTISRDNAKNTVYLQMNSLKPEDTAVYYCARDRKIAYLSEGFDYWGQGTQVTVSS | low polyreactivity
QVQLVESGGGLVQAGGSLRLSCAASGRIFKNYAMGWYRQAPGKERELVAAISRSGGRTYYADSVKGRFTISRDNAKNTVYLQMNSLKPEDTAVYYCAADVDYRYSKIYKWTYDYWGQGTQVTVSS | high polyreactivity
QVQLVESGGGLVQAGGSLRLSCAASGRIFKNYAMGWYRQAPGKERELVAAITWSGGRTYYADSVKGRFTISRDNAKNTVYLQMNSLKPEDTAVYYCATAARRGPNSIEPFGYGSWGQGTQVTVSS | high polyreactivity
QVQLVESGGGLVQAGGSLRLSCAASGRIFKRNAMGGYRQAPGKDREVVADMSYGHSTYADSVKGRFTISRDNAKKTVYLQMNSLKPEDTAFYYCAKLYWIRTYDYWGQGTQVSVSS | low polyreactivity
QVQLVESGGGLVQAGGSLRLSCAASGRIFKRNAMGWYRQAPGKERELVAAISYSGGSTYYADSVKGRFTISRDNAKNTVYLQMNSLKPEDTAVYYCAVDRYPTGITKYDYWGQGTQVTVSS | high polyreactivity
QVQLVESGGGLVQAGGSLRLSCAASGRIFKRNTMGWYRQAPGKEWELVAAITRSGGSTHYADSVKGRFTFSRDNAKNTVYLHMNSLKPEDTAVYYCAVRAAAIDRLAQFDYWGQGSQVTVSS | low polyreactivity
QVQLVESGGGLVQAGGSLRLSCAASGRIFKRYAMGWYRQAPGKERELVAAISRGGSTNYADSVKGRFTISRDNAKNTVYLQMNSLKPEDTAVYYCAVQSGYSGSSQPVRYDYWGQGTQVTVSS | high polyreactivity
QVQLVESGGGLVQAGGSLRLSCAASGRIFKRYAMGWYRQAPGKERELVAAITSSGGRTYYADSVKGRFTISRDNAKNTVYLQMNSLKPEDTAVYYCNVDSANRDGYWGQGTQVTVSS | high polyreactivity
QVQLVESGGGLVQAGGSLRLSCAASGRIFKRYAMGWYRQAPGKERELVASITWSGGSTYYADSVKGRFTISRDNAKNTVYLQMNSLKPEDTAVYYCAARRTATTSRAYYYWGQGTQVTVSS | high polyreactivity
QVQLVESGGGLVQAGGSLRLSCAASGRIFKRYAMGWYRQAPGKERELVATITNGGRTSYADSVKGRFTISRDNAKNTVYLQMNSLKPEDTAVYYCNAYGQTSRPLVYGWRYDYWGQGTQVTVSS | high polyreactivity
QVQLVESGGGLVQAGGSLRLSCAASGRIFKSYAMGWYRQAPGKEMELVAAINWSGGSTYYADSVKGRFTISRDNAKNTVYLQMNSLKPEDTAVYYCNALYAVRSYDSWGQGTQVTVSS | high polyreactivity
QVQLVESGGGLVQAGGSLRLSCAASGRIFKSYAMGWYRQAPGKERELVASIRTGGTTNYADSVNGRFTISRDNAKNTVYLQMNSLKPEDTAVYDCNRGYYSYYGRYYYWGQGTQVTVSS | high polyreactivity
QVQLVESGGGLVQAGGSLRLSCAASGRIFKSYVMGWYRQAPGKERELVAAISKRGGRTYYADSVKGRFTISRDNAKNTVYLQMNSLKPEDTAVYYCNATYPVGDFDYWGQGTQVTVSS | high polyreactivity
QVQLVESGGGLVQAGGSLRLSCAASGRIFKTYTMGWYRQAPGKERELVAVSTSVGSTYYADSVKGRFTISRDNAKNTVYLQMNSLKPEDTAVYYCAAETWVPQGYDYWGQGTQVTVSS | high polyreactivity
QVQLVESGGGLVQAGGSLRLSCAASGRIFKVNTMGWYRQAPGKERELVASIRGGGSTNYADSVKGRFTISRDNAKNTVNLQMHSPKPEDTAVYYCAAGTSKPTPIYGYWGQGTQVTVSS | low polyreactivity
QVQLVESGGGLVQAGGSLRLSCAASGRIFKVYAMGWYRQAPGKERELVAAISSRGGSTYYADSVKGRFTISRDNAKNTVYLQMNSLKPEDTAVYYCAALVTWLHPKGDYWGQGTQVTVSS | high polyreactivity
QVQLVESGGGLVQAGGSLRLSCAASGRIFKWYAMGWYRQAPGKERELVAAITSGGGSTYYADSVKGRFTISRDNAKNTVYLQMNSLKPEDTAVYYCNSWSSYGYDYWGQGTQVTVSS | high polyreactivity

Sequence | polyreactivity (PSR sort gate)
QVQLVESGGGLVQAGGSLRLSCAASGRIFKYNAMGWYRQAPGKERELVAVISFSGGSTYYADSVKGRFTISRDNAKNTVYLQMNSLKPEDTAVYYCNVRQHYSRRLKKWQMDCWGQGTQVTVSS | high polyreactivity
QVQLVESGGGLVQAGGSLRLSCAASGRIFKYYAMGWYRPAPGNETELVAAIRWSDSTYYADSVKGRFTSSRDNAKNTVYLQMNSLQPEDTAVYYCAALYRHPQEYRVGDYDYWGQGTQVTVSS | low polyreactivity
QVQLVESGGGLVQAGGSLRLSCAASGRIFKYYAMGWYRQAPGKERELFAAISRGGSTYYADSVKGRFTISRDNAKNTVYLQMNSLKPEDTAVYYCNAYRHGYVAYRRYDYWGQGTQVTVSS | high polyreactivity
QVQLVESGGGLVQAGGSLRLSCAASGRIFKYYAMGWYRQAPGKERELVAAISRSGGSTYYADSVKGRFTISRDNAKKTVYLQMNSLKPEDTAVYYCAAGYKQATYDRIRTAYGYWGQGTQVTVSS | high polyreactivity
QVQLVESGGGLVQAGGSLRLSCAASGRIFKYYSMGWYRQAPGKERELVAAITRGGSTNYADSVKGRFTISRDNAKNTFYLQMKSLKTEDTEVYYCAVDTVRNHLMDYWGQGNQVTVSS | low polyreactivity
QVQLVESGGGLVQAGGSLRLSCAASGRIFKYYTMVWYRQAPGKERELVAAINSRGGTTYYADSVKGRFTISRDNAKNTVYLQMNSLKPVDTAVYYCAIDRIRDAGYRGLHRFDYWGQGTQVTLSS | low polyreactivity
QVQLVESGGGLVQAGGSLRLSCAASGRIFKYYVMGWYRQAPGKERELVAGISSSGGSTYYADSVKGRFTISRDNAKNTVYLQMNSLKPEDTAVYYCAADYTFAYYNVKMDYWGQGTQVTVSS | low polyreactivity
QVQLVESGGGLVQAGGSLRLSCAASGRIFLFNAMGWYRQAPGKEREFVAAISASGGSTYYADSVKGRFTISRDNAKNTVYLQMNSLKPEDTAVYYCAADYLYTRDVDYDYWGQGTQVTVSS | low polyreactivity
QVQLVESGGGLVQAGGSLRLSCAASGRIFLFYAMGWYRPAPGKERELVAAISVRGGSTYYADSVKGRFTISRDNAKNTVYLQMNSLKPEDTAVYYCAAKQKHTQQYGYWGQGTQVTVSS | high polyreactivity
QVQLVESGGGLVQAGGSLRLSCAASGRIFLGNAMGWYRQAPGKESELVAAITYSGRSTYYADSVKGRFTISRDNAKNTVYLQMNSLKPEDTAVYYSAARQYWTTDLPFQRYYYWGQGTQVTVSS | low polyreactivity
QVQLVESGGGLVQAGGSLRLSCAASGRIFLGNVMGWYRQAPGKERELVAAISSGGSTNYADSVKGRFTISRDNAKNTVYLQMNSLKPEDTAVYYCAAYFVRDWKLYYYWGQGTQVTVSS | low polyreactivity
QVQLVESGGGLVQAGGSLRLSCAASGRIFLINAMGWYRQARGKEWELVAAIRTGGNTYYADSVKGRFTISRDNAKTTVYLQMNSLKPEDTAVYYCAAARIYPYYRWSGAHRSDVDYWGQGTQVTVSS | low polyreactivity
QVQLVESGGGLVQAGGSLRLSCAASGRIFLIYAMGWYRQAPGKDRELVAAISGRGGGTTYYADSVKGRFTISRDNAKITVYLQMNSLKPEATAVYYCAARNGGHKYYYWGQGTQVTVSS | high polyreactivity
QVQLVESGGGLVQAGGSLRLSCAASGRIFLPNAMGWYRQAPGKERELVATITRGGGSTYYADSVKGRFTISRDNAKNTVYLQMNSLKPEDTAVYYCAKGYLLYQGHLPYWHRGGYWGQGTQVTVSS | high polyreactivity
QVQLVESGGGLVQAGGSLRLSCAASGRIFLRNAMGWFRQAPGKERELVAAIRGSGGSTYYADSVKRRFTISRDHAKTTVYLQTNSLKPEDTPVYYCAVASYYRYSHTYGYWGQGTQVTVSS | high polyreactivity
QVQLVESGGGLVQAGGSLRLSCAASGRIFLRNDMGWYRQAPGKVRELVAGISSDGSTYYADSVKGRFTISRDNAKNTVYLQMTSLKPEDTAVYYCNAEDTPGAGDGNWGQGTQVTVSS | low polyreactivity
QVQLVESGGGLVQAGGSLRLSCAASGRIFLSNAMGWYRQAPGKERELVAAISLSGGRTYYADSVKGRFTISRDNAKNTVYLQMNSLKPEDTAVYYCAAEFYPIRYYGRYDYWGQGTQVTVSS | low polyreactivity
QVQLVESGGGLVQAGGSLRLSCAASGRIFLSYAIGWYRQAPGKERELVAAITSSGGSTYYADSVKGRFTISRDNAKNTVYFQMNSLKPEDTAVYYCAADYGDPRVNEYDYWGQGTQVTVSS | low polyreactivity
QVQLVESGGGLVQAGGSLRLSCAASGRIFLSYAMGWYRQAPGKERELVAAISQSGSSKYYADSVKGRFTISRDNAKNTVYLQMNSLKPEDTAVYYCAARTGRKYYYWGQGTQVTVST | high polyreactivity
QVQLVESGGGLVQAGGSLRLSCAASGRIFLSYAMGWYRQAPGNEREFVAAITSSGGSTSYADSVKGRFTISRDNAKNTVYLQMNSLKPEDTAVYYCNDRAYIFGQMKYDYWGQGTQVTVSS | low polyreactivity
